Changes are numbered by the printed parent chain.
B1: C0021133 scFv (scFv, V domains shown)
VH: EVQLLESGGGLVQPGGSLRLSCAASGFTFRYDHHVWVRQAPGKGLEWVSAISGSGGSTYYADSVKGRFTISRDNSKNTLYLQMNSLRAEDTAVYYCARLRADLGLYMDLWGRGTLVTVSS
VL: QSVLTQPPSVSAAPGQKVTVSCSGSSSNIGNHYVSWYQQLPGTAPKLLIYDTTVLSSGIPDRFSGSKSGTSATLGITGLQTGDEADYYCGTWDELTSNLVFGGGTKLTVL
notes: scFv
B2: C0021141 scFv (scFv, V domains shown)
VH: B1 VH with R30Y, Y31P, H33P, H34Q, V35G, I51Y, S52G, G53Y, S54G, G55I
VL: QSVLTQPPSVSAAPGQEVTISCSGSSSNIDNHYVSWYQQLPGTAPKLLIYDNSERPSGIPDRFSGSKSGTSATLGITGLQTGDEADYYCGTWDSSLSALVFGGGTKLTVL
notes: scFv
B3: C0021022 scFv (scFv, V domains shown)
VH: EVQLLESGGGLVQPGGSLRLSCAASGFTFSSYAMSWVRQAPGKGPEWVSAISGFSPYYADSVKGRFTISRDNSKNTLYLQMNSLRAEDTAVYYCARLRADLGLYMDLWGRGTLVTVSS
VL: B2 VL with E17K, D30G
notes: scFv
B4: C0021128 scFv (scFv, V domains shown)
VH: B1 VH with R30Q, D32E, H33V, H34A, V35A, S54P, G55I, G56P, S57K, T58G
VL: B2 VL with E17K, D30G, S53A, E54I, R55E, P56S, E84G, S95N
notes: scFv
B5: C0021118 scFv (scFv, V domains shown)
VH: EVQLLESGGGLVQPGGSLRLSCAASGFTFSSYAMSWVRQAPGKGLEWVSASLTNPGSTYYADSVKGRFTISRDNSKNTLYLQMNSLRAEDTAVYYCARLRADLGLYMDLWGRGTLVTVSS
VL: B2 VL with E17K, D30G, G90A, W92Y, S94T, S95N
notes: scFv
B6: C0021096 scFv (scFv, V domains shown)
VH: B3 VH with P45L, F54Y, P56G
VL: B2 VL with E17K, D30G, D51N, N52T, S53E, E54R, P56M
notes: scFv
B7: C0021135 scFv (scFv, V domains shown)
VH: B1 VH with T28A, D32E, H33Y, H34I, V35Q
VL: B2 VL with E17K, D30G, P45H
notes: scFv
B8: C0021131 scFv (scFv, V domains shown)
VH: B1 VH with R30P, H33Y, H34M, V35G
VL: B2 VL with E17K, D30G, S94E, S95L, L96T, A98N
notes: scFv
B9: C0021129 scFv (scFv, V domains shown)
VH: B3 VH with Q13R, P45L, Y57F
VL: B2 VL with E17K, D30G, G75D, S94E, S95T, L96A, S97A, A98E
notes: scFv
B10: C0021101 scFv (scFv, V domains shown)
VH: B3 VH
VL: B2 VL with E17K, D30G, D51N, S53R, E54S, R55P, P56T
notes: scFv
B11: C0021124 scFv (scFv, V domains shown)
VH: B5 VH with S51I, L52S, T53Y, N54H, M83I
VL: B2 VL with P7L, E17K, D30G, S95D, L96R, S97V, A98N, V100E
notes: scFv
B12: C0021065 scFv (scFv, V domains shown)
VH: B3 VH with K74R
VL: B2 VL with E17K, D30G, N52T, S53D, E54H, R55M, P56A
notes: scFv
B13: C0021139 scFv (scFv, V domains shown)
VH: B1 VH with R30Q, H33Y, H34Q
VL: B1 VL with V20I, T52N, T53S, V54E, L55R, S56T
notes: scFv
B14: C0021061 recombinant human IgG1 (antibody, V domains shown)
VH: B5 VH with S51K, L52P, N54D, P55A
VL: B2 VL with E17K, D30G, D51N, N52T, S53V, E54Y, R55P, P56K
B15: C0021022 recombinant human IgG1 (antibody, V domains shown)
VH: B3 VH
VL: B2 VL with E17K, D30G
B16: C0021133 recombinant human IgG1 (antibody, V domains shown)
VH: B1 VH
VL: B1 VL
B17: C0021139 recombinant human IgG1 (antibody, V domains shown)
VH: B1 VH with R30Q, H33Y, H34Q
VL: B1 VL with V20I, T52N, T53S, V54E, L55R, S56T
B18: C0021092 recombinant human IgG1 (antibody, V domains shown)
VH: B5 VH with S31R, S51H, L52T, T53H, N54S
VL: B2 VL with E17K, D30G, D51N, N52S, S53V, E54A
B19: C0021065 recombinant human IgG1 (antibody, V domains shown)
VH: B3 VH with K74R
VL: B2 VL with E17K, D30G, N52T, S53D, E54H, R55M, P56A
B20: C0021144 recombinant human IgG1 (antibody, V domains shown)
VH: B1 VH with H33Y
VL: B1 VL with Y33H, I59V
B21: C0021177 recombinant human IgG1 (antibody, V domains shown)
VH: B1 VH with D32E, H33V, H34A, V35A, S54P, G55A, G56P, S57K, T58G
VL: B1 VL with V3E, S9T, V10A, V20I
B22: C0021180 recombinant human IgG1 (antibody, V domains shown)
VH: B1 VH with D32E, H33V, H34A, V35A, S54P, G55I, G56P, S57K, T58G
VL: QSVLTQPPTVSAAPGRKVTISCSGSSSNIGDHHVSWYQQLPGAAPKLLIYDTDHMASGIPDRFSGSRSGTSATLGITGLQTGDEADYYCGTWDSSLSALVFGGGTKLTVL
B23: C0021155 recombinant human IgG1 (antibody, V domains shown)
VH: B1 VH with A23E, H33Y, S63P
VL: B1 VL with Q1R, V20I, K106R
B24: C0021181 recombinant human IgG1 (antibody, V domains shown)
VH: B1 VH with Q13R, G26E, H33Y, G66S
VL: B1 VL with T19A, N31S, T52N, T53S, V54E, L55R, S56T, K106R

Target: T1, recombinant human trimeric ARG2 enzyme (construct not given) (human, UniProt P78540 23-354)
T1 sequence (looked up): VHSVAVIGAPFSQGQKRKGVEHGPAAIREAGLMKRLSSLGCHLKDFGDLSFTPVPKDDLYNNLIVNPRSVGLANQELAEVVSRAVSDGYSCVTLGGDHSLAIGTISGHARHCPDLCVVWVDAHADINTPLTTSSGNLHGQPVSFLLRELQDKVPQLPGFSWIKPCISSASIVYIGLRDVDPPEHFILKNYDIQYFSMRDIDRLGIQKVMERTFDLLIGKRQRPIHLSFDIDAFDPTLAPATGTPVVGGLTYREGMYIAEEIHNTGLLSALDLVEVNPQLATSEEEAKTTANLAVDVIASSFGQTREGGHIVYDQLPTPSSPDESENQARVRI
Experiment: cell-based or functional assay

Compared with B1, B2 is 2.6-fold lower in “Trimeric human ARG2 EIA IC50” value: 281 nM for the first, 109 nM for the second.

Going from B3 to B4, the “Trimeric human ARG2 EIA IC50” value rises from 106 nM to 169 nM (1.6-fold).

B5 and B6 are within 1.5-fold of each other in “Trimeric human ARG2 EIA IC50” value: 84.1 nM for the first, 57.8 nM for the second.

B7 and B8 are within 1.5-fold of each other in “Trimeric human ARG2 EIA IC50” value: 220 nM for the first, 251 nM for the second.

Compared with B9, B10 is 4.8-fold lower in “Trimeric human ARG2 EIA IC50” value: 313 nM for the first, 64.8 nM for the second.

Compared with B11, B12 is 2.6-fold lower in “Trimeric human ARG2 EIA IC50” value: 375 nM for the first, 143 nM for the second.

For B13, the “Trimeric human ARG2 EIA IC50” value was 188 nM.

Target: T2, THP-1 lysate derived human trimeric ARG2 (human, UniProt P78540 23-354, limits assumed)
T2 sequence (looked up): T1 sequence (looked up)
Experiment: cell-based or functional assay

B14 and B15 are within 1.5-fold of each other in “IC50 (M) THP-1 ARG2 (healthy human plasma)” value (shortened to “IC50 … (healthy human plasma)”): 2.9e-09 M for the first, 2.71e-09 M for the second.

Compared with B16, B17 is 1.8-fold lower in “IC50 … (healthy human plasma)” value: 3.7e-09 M for the first, 2.02e-09 M for the second.

B18 and B19 are within 1.5-fold of each other in “IC50 … (healthy human plasma)” value: 2.82e-09 M for the first, 2.98e-09 M for the second.

B14 and B15 are within 1.5-fold of each other in “IC50 (M) THP-1 ARG2 (no plasma)” value: 6.79e-09 M for the first, 5.81e-09 M for the second.

B16 and B17 are within 1.5-fold of each other in “IC50 (M) THP-1 ARG2 (no plasma)” value: 6.68e-09 M for the first, 5.75e-09 M for the second.

B18 and B19 are within 1.5-fold of each other in “IC50 (M) THP-1 ARG2 (no plasma)” value: 6.56e-09 M for the first, 5.99e-09 M for the second.

Target: T1, recombinant human trimeric ARG2 enzyme …
Experiment: cell-based or functional assay
Remark: another data set of the same source

B14 and B15 are within 1.5-fold of each other in “EC50, In Presence of rhARG2 (T cell proliferation)” value (“EC50, In Presence of rhARG2” for short): 113 nM for the first, 132 nM for the second.

B16 and B17 are within 1.5-fold of each other in “EC50, In Presence of rhARG2” value: 101 nM for the first, 111 nM for the second.

B18 and B19 are within 1.5-fold of each other in “EC50, In Presence of rhARG2” value: 116 nM for the first, 136 nM for the second.

Going from B14 to B15, the “Maximum % Proliferation, In Presence of rhARG2” value (from here on “Maximum % Proliferation”) falls from 83% to 77%.

Compared with B16, B17 is lower in “Maximum % Proliferation” value: 73% for the first, 67% for the second.

First: B18
Second: B19
The “Maximum % Proliferation” value of the first is lower: 77% for the first, 87% for the second.

Target: T2, THP-1 lysate derived human trimeric ARG2
Experiment: cell-based or functional assay
Remark: another data set of the same source

First: B20
Second: B21
The “THP-1 lysate ARG2 EIA IC50” value of the first is 2.1-fold higher: 10.9 nM for the first, 5.17 nM for the second.

Compared with B22, B23 is 2.1-fold higher in “THP-1 lysate ARG2 EIA IC50” value: 4.59 nM for the first, 9.64 nM for the second.

B24 and B14 are within 1.5-fold of each other in “THP-1 lysate ARG2 EIA IC50” value: 6.93 nM for the first, 5.81 nM for the second.

For B16, the “THP-1 lysate ARG2 EIA IC50” value was 7.38 nM.

Target: T1, recombinant human trimeric ARG2 enzyme …
Experiment: cell-based or functional assay
Remark: another data set of the same source

Going from B21 to B22, the “EC50, In Presence of rhARG2” value rises from 86 nM to 137 nM (1.6-fold).

With B14 the “EC50, In Presence of rhARG2” value was 149 nM.

Compared with B21, B22 is higher in “Maximum % Proliferation” value: 84% for the first, 91% for the second.

In the case of B14, the “Maximum % Proliferation” value is reported as 110%.

Target: T3, biotinylated recombinant human trimeric ARG2 enzyme (Avi-huARG2-His10) (human, UniProt P78540 23-354, biotinylated)
T3 construct: also called avi-Arg2-His10; bio-ARG2
T3 chain: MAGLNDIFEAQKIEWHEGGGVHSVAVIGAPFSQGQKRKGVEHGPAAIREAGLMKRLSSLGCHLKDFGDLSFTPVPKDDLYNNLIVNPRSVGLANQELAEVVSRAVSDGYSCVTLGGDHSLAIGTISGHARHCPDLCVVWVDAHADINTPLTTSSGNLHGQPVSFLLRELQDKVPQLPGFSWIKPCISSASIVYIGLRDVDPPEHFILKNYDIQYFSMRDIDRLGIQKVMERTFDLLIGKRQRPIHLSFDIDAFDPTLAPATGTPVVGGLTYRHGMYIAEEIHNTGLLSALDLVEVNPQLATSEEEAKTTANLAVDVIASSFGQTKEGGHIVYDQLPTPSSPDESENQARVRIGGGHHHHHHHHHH
Experiment: HTRF epitope competition, scFv titrated, competitor C0020187 IgG, on biotinylated human trimeric ARG2

B1 and B2 are within 1.5-fold of each other in IC50: 43.3 nM for the first, 51.1 nM for the second.

B3 and B4 are within 1.5-fold of each other in IC50: 65.9 nM for the first, 44.5 nM for the second.

B5 and B6 are within 1.5-fold of each other in IC50: 41.7 nM for the first, 35.2 nM for the second.

B7 and B8 are within 1.5-fold of each other in IC50: 52 nM for the first, 45.7 nM for the second.

B9 and B10 are within 1.5-fold of each other in IC50: 45 nM for the first, 40.8 nM for the second.

B11 and B12 are within 1.5-fold of each other in IC50: 50.5 nM for the first, 74.7 nM for the second.

Work on B13 yielded an IC50 of 40.1 nM.

Reference: patent US20220403048A1 (CANCER RESEARCH TECHNOLOGY, published 2022)
